From patent US20240287172A1 (SCIRHOM, published 2024)
Where a chain is given by its changes, count along the chain named.

T1: hiR2-FL-R582A-T7 (human, UniProt Q6PJF5 1-856)
T1 sequence: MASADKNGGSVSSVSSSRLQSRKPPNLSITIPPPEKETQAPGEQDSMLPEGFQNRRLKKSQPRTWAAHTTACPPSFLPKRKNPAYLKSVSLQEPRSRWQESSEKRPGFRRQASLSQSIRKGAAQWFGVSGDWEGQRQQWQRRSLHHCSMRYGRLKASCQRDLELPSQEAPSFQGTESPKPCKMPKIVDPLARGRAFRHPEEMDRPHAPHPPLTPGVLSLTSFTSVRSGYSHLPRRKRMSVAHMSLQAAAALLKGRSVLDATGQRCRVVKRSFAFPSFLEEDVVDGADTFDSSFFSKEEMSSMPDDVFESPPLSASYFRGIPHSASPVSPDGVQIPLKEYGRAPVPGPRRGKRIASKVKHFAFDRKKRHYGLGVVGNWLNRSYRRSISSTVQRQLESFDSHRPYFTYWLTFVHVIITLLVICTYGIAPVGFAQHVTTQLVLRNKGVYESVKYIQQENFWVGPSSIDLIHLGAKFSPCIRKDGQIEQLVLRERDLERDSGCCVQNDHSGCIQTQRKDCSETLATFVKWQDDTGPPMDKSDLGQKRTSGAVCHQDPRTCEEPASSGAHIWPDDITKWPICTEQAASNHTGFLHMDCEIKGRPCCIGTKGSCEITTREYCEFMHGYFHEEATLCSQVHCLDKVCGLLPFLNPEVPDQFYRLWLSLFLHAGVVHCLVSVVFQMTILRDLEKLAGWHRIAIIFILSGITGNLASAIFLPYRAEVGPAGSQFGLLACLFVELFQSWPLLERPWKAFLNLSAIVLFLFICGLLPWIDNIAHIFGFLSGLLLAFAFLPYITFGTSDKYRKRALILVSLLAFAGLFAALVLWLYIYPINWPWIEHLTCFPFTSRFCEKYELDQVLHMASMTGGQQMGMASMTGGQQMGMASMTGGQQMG

T2: hiR2-FL-Q510A-T7 (human, UniProt Q6PJF5 1-856)
T2 construct: reduced surface expression reported
T2 sequence: T1 sequence with Q510A, A582R

B1: antibody 3 (antibody, V domains shown)
VH: QVTLKESGPGILQPSQTLSLTCSFSGFSLTTFAMGIGWVRQPSGKGLEWLAHIWWDGEKYNNPVLKSRLTISKDTSKNQVFLRIANVDTPDTATYYCARISSIYYIIDNWGQGTSVTVSS
VL: DIVLTQSPATLSVTPGHSVSLSCRASQSISNNLHWYQKKSHESPRLLIKYVSQSISGIPSRFSGSGSGTDFTLSINSVETEDFGMYFCQQSYNWPLTFGAGTKLELK
notes: mouse IgG, kappa light chain; also called clone #3; purified antibody 3
B2: antibody 50 (antibody, V domains shown)
VH: QVQLQQSGAELVRPGASVKVSCKASGYAFSNYLIEWVKQRPGQGLEWIGVINPGSGFTKYNEKFKGKATLTADKSSSTAYMQLSSLTSEDSAVYFCARGLYRAMDYWGQGTSVTVSS
VL: DIQMTQSPASQSASLGESVTITCLASQTIGTWLAWYQQKPGKSPQLLIYAAASLADGVPSRFSGGGSGTKFSFKISSLQAEDFVNYYCQQIYSTPYTFGGGTKLEIK
notes: mouse IgG, kappa light chain; also called clone #50; purified antibody 50

Key:
hiR2-FL-R582A-T7 = target: T1, hiR2-FL-R582A-T7; assay: FACS on MEF-DKO cells expressing the variant, 3 µg/ml antibody
Outline: (§1)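 Cells were stained with purified antibody at 3 μg/ml in FACS buffer for 1 hour on ice, with buffer-only controls. Bound antibody was detected with PE-conjugated goat anti-mouse IgG F(ab′)2 at 1:100, 1 hour on ice in the dark, followed by flow cytometry.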

hiR2-FL-Q510A-T7 = target: T2, hiR2-FL-Q510A-T7; assay: as above
Outline: as §1

| Binder | loss of binding vs wild type (hiR2-FL-R582A-T7) | loss of binding vs wild type (hiR2-FL-Q510A-T7) |
| --- | --- | --- |
| B1 | ≥ 30% | – |
| B2 | – | ≥ 30% |
